From US20210147536A1 (MAB VENTURE BIOPHARM, published 2021)

Key:
[1] = biological target: T1, human LAG-3 on the cell surface (human, UniProt P18627 23-525); assay: cell-based or functional assay
T1 sequence (looked up): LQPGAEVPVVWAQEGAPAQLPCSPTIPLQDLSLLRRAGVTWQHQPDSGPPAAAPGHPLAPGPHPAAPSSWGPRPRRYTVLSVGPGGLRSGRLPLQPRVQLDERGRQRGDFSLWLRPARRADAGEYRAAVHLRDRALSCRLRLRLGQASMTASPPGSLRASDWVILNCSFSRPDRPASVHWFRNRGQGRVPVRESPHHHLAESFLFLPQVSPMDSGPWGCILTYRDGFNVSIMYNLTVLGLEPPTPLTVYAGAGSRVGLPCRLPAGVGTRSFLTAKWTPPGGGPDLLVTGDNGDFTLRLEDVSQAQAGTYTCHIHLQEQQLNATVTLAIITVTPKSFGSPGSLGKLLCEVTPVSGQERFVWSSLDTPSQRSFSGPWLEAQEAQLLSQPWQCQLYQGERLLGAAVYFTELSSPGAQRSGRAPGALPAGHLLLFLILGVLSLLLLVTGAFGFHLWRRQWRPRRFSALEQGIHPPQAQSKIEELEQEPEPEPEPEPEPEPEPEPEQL

[2] = biological target: T1, human LAG-3 on the cell surface; assay: cell-based or functional assay; remark: listed apart in the source
[3] = biological target: T2, human LAG-3-6*His tag recombinant fusion protein (human, UniProt P18627 23-450, biotin-labelled in panning and in Example 9); assay: ELISA as in Example 4 (antibody coated, human LAG-3-6*His titrated); N = 5
T2 construct: Bought protein; also called hLAG-3-6*his tag recombinant protein; human LAG-3-his tag recombinant fusion protein
T2 sequence: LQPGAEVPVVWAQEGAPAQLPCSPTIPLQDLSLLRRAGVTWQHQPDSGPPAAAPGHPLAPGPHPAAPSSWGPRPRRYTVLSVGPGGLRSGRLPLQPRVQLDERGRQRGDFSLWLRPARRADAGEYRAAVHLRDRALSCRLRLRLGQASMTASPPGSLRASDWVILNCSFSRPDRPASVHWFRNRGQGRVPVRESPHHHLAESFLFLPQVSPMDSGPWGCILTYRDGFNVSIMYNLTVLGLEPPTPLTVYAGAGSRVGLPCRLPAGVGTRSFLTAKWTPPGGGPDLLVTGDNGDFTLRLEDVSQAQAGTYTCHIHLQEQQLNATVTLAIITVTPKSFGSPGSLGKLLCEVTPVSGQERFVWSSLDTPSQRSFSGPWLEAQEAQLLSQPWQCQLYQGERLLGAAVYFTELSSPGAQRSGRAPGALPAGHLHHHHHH

[4] = biological target: T1, human LAG-3 on the cell surface; assay: flow cytometry on cells expressing the human LAG-3, PE anti-human IgG; N = 4
[5] = biological target: T2, human LAG-3-6*His tag recombinant …; assay: BLI Octet Red96, MV705-3 on AHC sensor, human LAG-3-6*His at 500 nM, 1:1 model
[6] = biological target: T1, human LAG-3 on the cell surface; assay: flow cytometry on activated human CD4+ T cells expressing LAG-3, PE anti-human antibody
[7] = biological target: T2, human LAG-3-6*His tag recombinant …; assay: ELISA, antibody coated at 1 µg/ml, human LAG-3-6*His titrated, anti-His HRP; range of three experiments
[8] = biological target: T2, human LAG-3-6*His tag recombinant …; assay: BLI (Octet Red96), biotinylated hLAG-3-6*his on SA biosensor, antibody 100 µg/mL in solution, 1:2 binding model

B1: anti-human LAG-3 full human monoclonal antibody MV705-3 (antibody, human IgG4, V domains shown)
VH: EVQLLESGAEVKKPGASVKVSCKASGYTFTSYGISWVRQAPGQGLEWMGWISAYNGNTNYAQKLQGRVTMTTDTSTSTAYMELRSLRSDDTAVYYCARDGWWELLRPDDAFDIWGQGTTVTVSS
VL: QLVLTQSPSVSVSPGQTASITCSGDKLGDKYAYWYQQKPGQAPVLVIYYDSDRPSGIPERFSGSNSGNTATLTISRVEAGDEADYYCQVWDSSSDQVVFGGGTQLTVLG
notes: Full IgG4 with lambda light chain; also called MV705-3(DD + DD)
For B1, the “EC50 of NFAT reporter gene induction (bio-glo luciferase), LAG3/NFAT Reporter-Jurkat + Raji cells + superantigen” value [1] was 0.04 µg/mL, the “EC50, ability to activate T cells in vitro (LAG3/NFAT Reporter-Jurkat)” value [2] was 0.13 µg/mL and the EC50 [3] was 0.039 µg/mL. It also gave an EC50 [4] of 2.3 ng/mL, a Kd [5] of 2.5 nM and a koff [5] of 9.95e-05 s⁻¹. For the same binder, the kon [5] was 39900 M⁻¹ s⁻¹, the EC50 [6] was 1.9 ng/mL and the EC50 [7] was 0.04 to 0.1 µg/mL. For the same binder, the Kd [8] was 3.04 nM, the koff [8] was 0.000373 s⁻¹ and the kon [8] was 122000 M⁻¹ s⁻¹.
